Measured values taken from patent publication US9068161B2, “Laccases and uses thereof” (DEINOVE, priority 2010, dated 2015).

B1: Deinococcus cellulolysiticus DRH46 laccase 2, recombinant, SEQ ID NO: 4 (Deinococcus cellulosilyticus NBRC 106333 = KACC 11606) (protein)
chain: PKGSPMTEYHNPAEVQASRTEKGSTFTLTAAETSITLDGKEVKAQLFNQSFPGPQLTLQAGEQVNLTLKNDLREPTNLHLHGLTLPAGVDDPFLQVQPGESHTYSFTVPQGLHGTFWYHTHTHGHLGTQLFQGLAGPLIVEDPTFDSHIQGMETHTVVLKDLPVEVQDSDGTRMNGREGKLLVNGLSSPTLKTESSWVRLRLINASNARYDLLKLSGSAFLHVIAKDGIDLPKTEQVKELLLTPGERADVLISVQDQQDLRLENHPYDRGVHEMDGGHQGHTPSTPEVLLTLQGKKGSVSASVPQPALQPRPFLKVTGNEAIRKVVLQETMQPVKFFINGRTFDMNRVDFHVSEGTTEIWEVENQTEMDHPFHLHTFPVQVLSVNGQEVPPVWKDTVNVPAKAKVQVAVKFEGFTGKTVFHCHIAEHEEEGMMGVLQVHPAGEALPASLTPTLPPAAASEDMPDMPGMDHSGH
B2: Laccase 1: enzyme having laccase activity from Deinococcus cellulolysiticus DRH46, amino acid sequence SEQ ID NO: 2, recombinant with 6(His) tag (protein)
chain: MKQRLTAAALLTALLSSCAMKNPDVISYQDPEPLAGQRSGKAAEFTLTAQKSRLDLAGQSVEALTYNGTFPGPLLTLKAGEDVRITLKNNLSEPTNLHLHGLPLSPEVDDPFVVVPPGGSHTYAFQVPEEVHGTFWYHTHTHGASAAQLFSGLAGPLLVEAAKPNNPIEHMETHTVVFKDLPGAQHADDGVLMNGRENTLLVNGLVSPTLKTENSWVQLRLINASNARYLRLKLDDGLLQVVARDGIDLPGMERAQELLLTPGERADVLVSLQDHQNLKLQNLPYDRGVHSMGSHSGHTESKTAVVLTLQGPQKPGASVPRVETAPPPFLQLQGNEKVRKVILQETMQPVKFFINGRSFDMNRVDFHVSEGSTEIWELQNTTEMDHPFHLHTFPMQLIRIGGKEVPPVWKDTVNIPKNSTVTVAVHFKGFTGKTVFHCHIAEHEEAGMMGLLQVHPSGTALPASLEPIEPTVGPGEDAQHGH
modifications: 6xHis tag; Laccase 1 derived from Deinococcus cellulolyticus DRH46
B3: Laccase 2: enzyme having laccase activity from Deinococcus cellulolysiticus DRH46, amino acid sequence SEQ ID NO: 4, recombinant with 6(His) tag (protein)
chain: MIRTLTSLTLLTVALTACAPKGSPMTEYHNPAEVQASRTEKGSTFTLTAAETSITLDGKEVKAQLFNQSFPGPQLTLQAGEQVNLTLKNDLREPTNLHLHGLTLPAGVDDPFLQVQPGESHTYSFTVPQGLHGTFWYHTHTHGHLGTQLFQGLAGPLIVEDPTFDSHIQGMETHTVVLKDLPVEVQDSDGTRMNGREGKLLVNGLSSPTLKTESSWVRLRLINASNARYDLLKLSGSAFLHVIAKDGIDLPKTEQVKELLLTPGERADVLISVQDQQDLRLENHPYDRGVHEMDGGHQGHTPSTPEVLLTLQGKKGSVSASVPQPALQPRPFLKVTGNEAIRKVVLQETMQPVKFFINGRTFDMNRVDFHVSEGTTEIWEVENQTEMDHPFHLHTFPVQVLSVNGQEVPPVWKDTVNVPAKAKVQVAVKFEGFTGKTVFHCHIAEHEEEGMMGVLQVHPAGEALPASLTPTLPPAAASEDMPDMPGMDHSGH
modifications: 6xHis tag; Laccase 2 derived from Deinococcus cellulolyticus DRH46
B4: Deinococcus cellulolysiticus DRH46 laccase 1, recombinant, SEQ ID NO: 2 (Deinococcus cellulosilyticus NBRC 106333 = KACC 11606) (protein)
chain: NPDVISYQDPEPLAGQRSGKAAEFTLTAQKSRLDLAGQSVEALTYNGTFPGPLLTLKAGEDVRITLKNNLSEPTNLHLHGLPLSPEVDDPFVVVPPGGSHTYAFQVPEEVHGTFWYHTHTHGASAAQLFSGLAGPLLVEAAKPNNPIEHMETHTVVFKDLPGAQHADDGVLMNGRENTLLVNGLVSPTLKTENSWVQLRLINASNARYLRLKLDDGLLQVVARDGIDLPGMERAQELLLTPGERADVLVSLQDHQNLKLQNLPYDRGVHSMGSHSGHTESKTAVVLTLQGPQKPGASVPRVETAPPPFLQLQGNEKVRKVILQETMQPVKFFINGRSFDMNRVDFHVSEGSTEIWELQNTTEMDHPFHLHTFPMQLIRIGGKEVPPVWKDTVNIPKNSTVTVAVHFKGFTGKTVFHCHIAEHEEAGMMGLLQVHPSGTALPASLEPIEPTVGPGEDAQHGH

Tests used:
[1] = substrate: COc1ccccc1O; experiment: Laccase assay, Laccase 2 activity (oxidation of substrates, spectrophotometric); assay type: biochemical, Deinococcus cellulolysiticus DRH46; conditions: other: 60° C., pH 8, 0.1M citrate-phosphate buffer, 0.05 mg/mL purified enzyme
Excerpt: (§1) Two enzymes having laccase activity have been characterized from Deinococcus cellulolysiticus DRH46 (namely laccase 1, laccase 2), and one enzyme having laccase activity has been characterized from Deinococcus maricopensis DSM 21211 (i.e., laccase 3). The amino acid sequences of laccase 1, laccase 2 and laccase 3 are represented in SEQ ID NO: 2, 4 and 6, respectively.
(§2) As mentioned in Example 1, nucleic acids encoding the laccase 1, 2 and 3 enzymes comprising the amino acid sequence of SEQ ID NO: 2, 4 or 6 respectively, were cloned into the pETDEST42 vector according to conventional recombinant techniques. In each vector, the cloned nucleic acid was cloned in frame with a 6(His) tag (SEQ ID NO: 7), to facilitate purification of the recombinant protein.
(§3) E. coli cells harboring the recombinant nucleic acid are prepared and grown in 4 liters of LB medium. Induction of the enzyme production is performed overnight in the presence of 1 mM IPTG and 2 mM of […]. […]
(§4) The assay is performed at T=45° C. and 60° C., pH=8. The absorbance was measured at A470 nm and the measure was carried out using Continuous Spectrophotometric Rate Determination. […]
(§5) Reagent A (185 μl) was mixed with Reagent B (10 μl). […] The absorbance at 470 nm was monitored until constant, using a suitably thermoregulated spectrophotometer. Then Reagent C (5 μl) was added and the increase in A470 nm was recorded for 30 minutes. […]

[2] = substrate: COc1cccc(OC)c1O; experiment: as above; assay type: biochemical, Deinococcus cellulolysiticus DRH46; conditions: other: 60° C., pH 8, 0.1M citrate-phosphate buffer, 0.05 mg/mL purified enzyme
Excerpt: as §1, §2, §3, §4, §5

[3] = Laccase assay, overall conclusion on recombinant enzyme; assay type: biochemical; conditions: in the tested conditions
Experimental: (§6) Standard assays for laccase activity were performed at the temperature range from 30° C. to 90° C. by measurement of enzymatic oxidation of substrates at appropriate wavelength. The reaction was performed in presence of a substrate concentration range, 0.05 mg/mL of purified enzyme and 1 mM prepared in 0.1M citrate-phosphate buffer pH8.
Standard assays were performed using the following substrates: 2,6 DMP, 4-methyl DMP, synapic acid, syringic acid, guaiacol, ABTS, paraphenylenediamine and ferulic acid.
Reagent A (185 μl) was mixed with Reagent B (10 μl). The mixture was equilibrated to 45° C. or 60° C. The absorbance at 470 nm was monitored until constant, using a suitably thermoregulated spectrophotometer. Then Reagent C (5 μl) was added and the increase in A470 nm was recorded for 30 minutes. The ΔA470 nm/minute was obtained using the maximum linear rate for the Test, Control and Blank, Blank being mixture without enzyme and Control being mixture with laccase from Trametes versicolor (T. versicolor, commercial enzyme) replacing Laccase enzyme solution (Reagent C).
Other substrates, different from 2,6 DMP such as 4-methyl DMP, synapic acid, syringic acid, guaiacol, ABTS, paraphenylenediamine and ferulic acid have also been tested at optimal concentration for each substrate (as shown in Tables 1A and 1B).

[4] = Temperature and pH optimum of laccase activity; assay type: biochemical; conditions: 2,6 DMP as substrate
Experimental: as §6
In another series of experiments, the laccase activity according to the invention, was also tested in different conditions of temperature and pH using various substrates.

[5] = substrate: COc1ccccc1O; experiment: Laccase assay, Laccase 1 activity (oxidation of substrates, spectrophotometric); assay type: biochemical, Deinococcus cellulolysiticus DRH46; conditions: other: 60° C., pH 8, 0.1M citrate-phosphate buffer, 0.05 mg/mL purified enzyme
Excerpt: as §1, §2, §3, §4, §5

[6] = substrate: COc1cccc(OC)c1O; experiment: as above; assay type: biochemical, Deinococcus cellulolysiticus DRH46; conditions: other: 60° C., pH 8, 0.1M citrate-phosphate buffer, 0.05 mg/mL purified enzyme
Excerpt: as §1, §2, §3, §4, §5

Molecule | Km [1] [µM] | Km [2] [µM] | Laccase activity of the recombinant enzyme [3] | Optimal pH [4] | Optimal temperature [4] [°C] | Km [5] [µM] | Km [6] [µM]
B1 | 5074 ± 343 | 992 ± 141 | – | – | – | – | –
B2 | – | – | fully active | 8 | 90 | – | –
B3 | – | – | fully active | 8 | 70 | – | –
B4 | – | – | – | – | – | 3046 ± 183 | 798 ± 35
